Publication PMC7442826, “The mechanism of activation of the actin binding protein EHBP1 by Rab8 family members” (Nature Communications, 2020)

B1: Rab8a_(1-176) (human Rab8a G-domain) (domain or fragment, UniProt P61006 1-176, looked up)
chain: MAKTYDYLFKLLLIGDSGVGKTCVLFRFSEDAFNSTFISTIGIDFKIRTIELDGKRIKLQIWDTAGQERFRTITTAYYRGAMGIMLVYDITNEKSFDNIRNWIRNIEEHASADVEKMILGNKCDVNDKRQVSKERGEKLALDYGIKFMETSAKANINVENAFFTLARDIKAKMDKK
notes: Rab8a G-domain, human, residues 1-176; in the stopped-flow assays to the fluorescent mantGppNHp (non-covalent); also called GppNHp Rab8a_(1-176); Rab8a_(GppNHp); source: preparatively loaded with GppNHp or mantGppNHp
B2: EHBP1 bMERB domain (bMERB_(1060-1212), full-length bMERB domain) (domain or fragment)
chain: not shown
notes: EHBP1 bMERB domain, human, residues 1060-1212, all three predicted helices; PDB 6ZSI and 6ZSJ hold the M1116A and F1120A mutants of the full-length bMERB domain; also called bMERB^EHBP1; full-length construct
B7: EHBP1 CH (calponin homology) domain (domain or fragment, human)
chain: GRKPNASQSLLVWCKEVTKNYRGVKITNFTTSWRNGLSFCAILHHFRPDLIDYKSLNPQDIKENNKKAYDGFASIGISRLLEPSDMVLLAIPDKLTVMTYLYQIRAHFSGQ
notes: EHBP1 central CH domain, human; also called CH domain; CH^EHBP1

Assays:
Settings in all cases: both partners purified
[1] = target: T1, EHBP1 bMERB domain L1156S (human, UniProt Q8NDI1-1 1060-1212, L1156S); test: ITC; 500 µM GppNHp Rab titrated into 50 µM bMERB domain; 20 mM Hepes 7.5, 50 mM NaCl, 1 mM MgCl2, 1 mM TCEP; 25 °C; one-site-binding model
T1 construct: EHBP1 bMERB domain, human, residues 1060-1212 as the wild-type construct; numbers on isoform 1 (Q8NDI1-1); source: E. coli BL21 DE3-RIL, purified

[2] = target: T2, EHBP1 bMERB domain V1186A (human, UniProt Q8NDI1-1 1060-1212, V1186A); test: as above
T2 construct: EHBP1 bMERB domain, human, residues 1060-1212 as the wild-type construct; numbers on isoform 1 (Q8NDI1-1); source: E. coli BL21 DE3-RIL, purified

[3] = target: T3, EHBP1 bMERB domain N1187A (human, UniProt Q8NDI1-1 1060-1212, N1187A); test: as above
T3 construct: EHBP1 bMERB domain, human, residues 1060-1212 as the wild-type construct; numbers on isoform 1 (Q8NDI1-1); source: E. coli BL21 DE3-RIL, purified

[4] = target: T4, EHBP1 bMERB domain R1189A (human, UniProt Q8NDI1-1 1060-1212, R1189A); test: as above
T4 construct: EHBP1 bMERB domain, human, residues 1060-1212 as the wild-type construct; numbers on isoform 1 (Q8NDI1-1); source: E. coli BL21 DE3-RIL, purified

[5] = target: T5, EHBP1 bMERB domain L1182S (human, UniProt Q8NDI1-1 1060-1212, L1182S); test: as above
T5 construct: EHBP1 bMERB domain, human, residues 1060-1212 as the wild-type construct; numbers on isoform 1 (Q8NDI1-1); source: E. coli BL21 DE3-RIL, purified

[6] = target: T6, EHBP1 bMERB domain L1179S (human, UniProt Q8NDI1-1 1060-1212, L1179S); test: as above
T6 construct: EHBP1 bMERB domain, human, residues 1060-1212 as the wild-type construct; numbers on isoform 1 (Q8NDI1-1); source: E. coli BL21 DE3-RIL, purified

[7] = target: T7, Rab8a_(1-176_T72E) (phosphomimetic Rab8a) (human, UniProt P61006 1-176, T72E); test: as above
T7 construct: Rab8a G-domain, human, residues 1-176, phosphomimetic switch II mutant; also called Rab8a_(T72E)
T7 sequence (looked up): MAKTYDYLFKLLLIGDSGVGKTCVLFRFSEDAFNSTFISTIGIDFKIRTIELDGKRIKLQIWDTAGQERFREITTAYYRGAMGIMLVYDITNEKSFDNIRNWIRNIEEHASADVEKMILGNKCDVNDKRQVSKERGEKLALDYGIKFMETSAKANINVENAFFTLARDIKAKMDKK

[8] = target: T8, Rab10_(1-175) (human Rab10 G-domain) (human, UniProt P61026 1-175); test: as above
T8 construct: Rab10 G-domain, human, residues 1-175
T8 sequence (looked up): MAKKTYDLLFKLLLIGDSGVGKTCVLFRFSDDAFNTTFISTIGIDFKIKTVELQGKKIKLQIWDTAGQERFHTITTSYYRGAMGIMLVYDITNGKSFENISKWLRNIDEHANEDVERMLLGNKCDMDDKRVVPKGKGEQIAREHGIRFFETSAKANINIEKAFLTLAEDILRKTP

[9] = target: B1; test: as above
[10] = target: B1; test: stopped-flow fluorescence kinetics; association: 0.5 µM mantGppNHp Rab8a_(1-176) with 1.5–8 µM bMERB domain, pseudo first order; koff from the y-axis intercept; Rab buffer, 25 °C
[11] = target: T9, Rab10_(1-175_T73E) (phosphomimetic Rab10) (human, UniProt P61026 1-175, T73E); test: SEC; analytical SEC, Superdex 75 10/300 GL; 110 µM bMERB domain mixed with 121 µM GppNHp Rab (1:1.1); 20 mM Hepes 7.5, 50 mM NaCl, 1 mM MgCl2, 2 mM DTE; room temperature
T9 construct: Rab10 G-domain, human, residues 1-175, phosphomimetic switch II mutant; also called Rab10_(T73E); 10_(T73E)
T9 sequence (looked up): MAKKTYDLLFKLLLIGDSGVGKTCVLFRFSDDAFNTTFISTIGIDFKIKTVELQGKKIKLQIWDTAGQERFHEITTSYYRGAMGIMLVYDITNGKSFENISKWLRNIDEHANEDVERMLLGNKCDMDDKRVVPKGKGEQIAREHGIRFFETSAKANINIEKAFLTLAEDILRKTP

[12] = target: B1; test: stopped-flow fluorescence kinetics; dissociation: complex of mantGppNHp Rab8a_(1-176) with the bMERB domain (2 µM) mixed with a 20-fold excess of unlabeled GppNHp Rab8a_(1-176); 25 °C
[13] = target: B1; test: crystal structure; sitting-drop vapor diffusion, 20 °C; 300–400 µM 1:1 complexes
[14] = target: B2; test: ITC; 600–800 µM CH domain titrated into 40–60 µM bMERB domain; 20 mM Hepes 7.5, 150 mM NaCl, 1 mM TCEP; 25 °C; one-site-binding model
[15] = target: F-actin (rabbit skeletal muscle actin, polymerized) (rabbit, UniProt P68135 1-377); test: co-sedimentation; 10 µM F-actin with 0–60 µM EHBP1 CH domain, 1 h RT; 5 mM Tris-HCl pH 7.5, 0.18 mM CaCl2, 15 mM KCl, 1 mM DTT, 1.8 mM NaN3; 100,000 g 1 h 4 °C; densitometry of SDS-PAGE
[16] = target: B7; test: ITC; 600–800 µM CH domain titrated into 40–60 µM bMERB domain; 20 mM Hepes 7.5, 150 mM NaCl, 1 mM TCEP; 25 °C; one-site-binding model
[17] = target: B2; test: stopped-flow fluorescence kinetics; dissociation: complex of Cy3 labeled CH with full-length bMERB domain (2 µM) mixed with a 20-fold excess of unlabeled CH domain; CH buffer
[18] = target: B2; test: stopped-flow fluorescence kinetics; association: 0.5 µM Cy3 labeled CH domain with 2–16 µM full-length bMERB domain; koff from the y-axis intercept; CH buffer, 25 °C

T4 sequence (Q8NDI1 1060-1212 R1189A): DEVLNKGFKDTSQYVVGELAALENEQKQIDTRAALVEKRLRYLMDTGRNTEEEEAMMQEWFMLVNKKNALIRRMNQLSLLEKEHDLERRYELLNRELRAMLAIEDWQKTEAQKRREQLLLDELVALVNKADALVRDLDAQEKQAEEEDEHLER
T2 sequence (Q8NDI1 1060-1212 V1186A): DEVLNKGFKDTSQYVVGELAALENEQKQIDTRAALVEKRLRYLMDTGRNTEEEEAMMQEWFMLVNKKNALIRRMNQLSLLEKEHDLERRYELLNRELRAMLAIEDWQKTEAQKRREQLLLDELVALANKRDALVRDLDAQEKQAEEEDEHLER
T6 sequence (Q8NDI1 1060-1212 L1179S): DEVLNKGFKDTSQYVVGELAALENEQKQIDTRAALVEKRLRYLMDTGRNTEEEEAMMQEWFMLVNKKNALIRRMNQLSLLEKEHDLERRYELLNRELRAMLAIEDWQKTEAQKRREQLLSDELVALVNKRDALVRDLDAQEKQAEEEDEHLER
T5 sequence (Q8NDI1 1060-1212 L1182S): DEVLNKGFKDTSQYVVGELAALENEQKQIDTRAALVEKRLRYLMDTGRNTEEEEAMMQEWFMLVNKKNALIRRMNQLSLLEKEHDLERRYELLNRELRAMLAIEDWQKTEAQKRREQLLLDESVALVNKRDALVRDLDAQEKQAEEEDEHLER
T1 sequence (Q8NDI1 1060-1212 L1156S): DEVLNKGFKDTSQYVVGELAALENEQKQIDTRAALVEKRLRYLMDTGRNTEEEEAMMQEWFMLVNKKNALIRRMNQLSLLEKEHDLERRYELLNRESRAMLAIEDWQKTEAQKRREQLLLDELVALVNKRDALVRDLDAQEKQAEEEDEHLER
T3 sequence (Q8NDI1 1060-1212 N1187A): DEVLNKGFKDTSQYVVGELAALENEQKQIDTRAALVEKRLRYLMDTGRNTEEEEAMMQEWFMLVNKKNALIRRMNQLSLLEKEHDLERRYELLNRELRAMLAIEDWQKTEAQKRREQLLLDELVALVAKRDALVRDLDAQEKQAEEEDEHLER

What does the source list for B1?
fold reduction in affinity against the wild-type bMERB domain [1]: 47 fold; fold reduction in binding affinity against the wild-type bMERB domain [2]: > 30 fold; fold reduction in binding affinity against the wild-type bMERB domain [3]: 5 fold; fold reduction in binding affinity against the wild-type bMERB domain [4]: 20 fold; fold decrease in binding affinity against the wild-type bMERB domain [5]: 10 fold; fold decrease in binding affinity against the wild-type bMERB domain [6]: 10 fold

Does B2 bind [7]?
Result: binds

Does B2 bind [8]?
Result: binds

And the Kd [9]?
The Kd was 310 nM.

And the Kd [10]?
The Kd was 480 nM.

What about the koff [10] of the same binder?
Its koff is 13.4 s⁻¹.

And the kon [10]?
The kon was 2.79e+07 M⁻¹ s⁻¹.

Does B2 bind [11]?
Result: binds

And the koff [12]?
The koff was 13.8 s⁻¹.

B3: EHBP1 bMERB domain Q1176A (domain or fragment)
chain: not shown
notes: EHBP1 bMERB domain, human, residues 1060-1212 as the wild-type construct; numbers on isoform 1 (Q8NDI1-1); source: E. coli BL21 DE3-RIL, purified
Does B3 bind [9]?
Result: binds

B4: EHBP1 bMERB domain lacking the N-terminal helix (helices 2-3) (domain or fragment)
chain: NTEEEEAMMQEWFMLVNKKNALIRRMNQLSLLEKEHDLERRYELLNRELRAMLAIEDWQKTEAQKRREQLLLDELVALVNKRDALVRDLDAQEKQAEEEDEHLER
Which Kd [9] does the source give for B4 here?
The Kd was 300 nM.

B5: EHBP1 full-length bMERB domain F1120A (domain or fragment)
chain: not shown
notes: EHBP1 full-length bMERB domain, human, residues 1060-1212 as the wild-type construct; numbers on isoform 1 (Q8NDI1-1); also called bMERB_(F1120A); source: E. coli BL21 DE3-RIL, purified
Does B5 bind [13]?
Result: binds

B6: EHBP1 full-length bMERB domain M1116A (domain or fragment)
chain: not shown
notes: EHBP1 full-length bMERB domain, human, residues 1060-1212 as the wild-type construct; numbers on isoform 1 (Q8NDI1-1); also called bMERB_(M1116A); source: E. coli BL21 DE3-RIL, purified
Does B6 bind [13]?
Result: binds

B7 was tested. Which Kd [14] did it give?
Its Kd is 1200 nM.

And the “stoichiometry N” value [14]?
Its value is 1.

And the Kd [15]?
The Kd was 9340 ± 1860 nM.

B8: EHBP1 CH domain D532A (domain or fragment, human)
chain: GRKPNASQSLLVWCKEVTKNYRGVKITNFTTSWRNGLSFCAILHHFRPDLIDYKSLNPQDIKENNKKAYDGFASIGISRLLEPSDMVLLAIPAKLTVMTYLYQIRAHFSGQ
notes: EHBP1 CH domain, human; numbers on isoform 1 (Q8NDI1-1); source: E. coli BL21 DE3-RIL, purified
Which “fold reduction in binding affinity against the wild-type CH domain” value [14] does the source give for B8 here?
Its value is > 40 fold.

B9: EHBP1 bMERB_(H1-2) (bMERB domain lacking the C-terminal helix) (domain or fragment)
chain: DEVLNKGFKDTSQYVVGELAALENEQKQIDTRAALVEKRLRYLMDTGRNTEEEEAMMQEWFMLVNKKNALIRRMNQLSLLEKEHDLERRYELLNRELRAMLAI
With B9 as the binder, how does the Kd [16] read?
The Kd was 780 nM.

B10: Cy3 labeled EHBP1 CH domain (domain or fragment, human)
chain: GRKPNASQSLLVWCKEVTKNYRGVKITNFTTSWRNGLSFCAILHHFRPDLIDYKSLNPQDIKENNKKAYDGFASIGISRLLEPSDMVLLAIPDKLTVMTYLYQIRAHFSGQ
modifications: Cy3 on the N-terminus
notes: EHBP1 central CH domain, human; also called Cy3-CH; source: E. coli BL21 DE3-RIL, purified; labelled with Cy3-thioester
For B10, which koff [17] is on record?
The koff was 117 s⁻¹.

What about the Kd [18] of the same binder?
Its Kd is 3750 to 4230 nM.

What about the koff [18] of the same binder?
Its koff is 104 s⁻¹.

What about the kon [18] of the same binder?
The kon was 2.76e+07 M⁻¹ s⁻¹.
